Measured values published in PMC10350235.

Biological target: endogenous cTn(I-C) dimer (cTnI with TnC) (human (endogenous in heart tissue)) (UniProt P19429)
Assay: native MS; native top-down MS on a 12-T FTICR, nanoelectrospray by direct infusion, 200 mM ammonium acetate; the heterotrimer was enriched as a whole from heart tissue on NP-Pep, isolated and its subunits ejected by CAD (complex-up, complex-down)

endogenous cTn(I-C) dimer (cTnI with TnC) (human (endogenous in heart tissue)), sequence (P19429 whole entry, the tested form may be a part): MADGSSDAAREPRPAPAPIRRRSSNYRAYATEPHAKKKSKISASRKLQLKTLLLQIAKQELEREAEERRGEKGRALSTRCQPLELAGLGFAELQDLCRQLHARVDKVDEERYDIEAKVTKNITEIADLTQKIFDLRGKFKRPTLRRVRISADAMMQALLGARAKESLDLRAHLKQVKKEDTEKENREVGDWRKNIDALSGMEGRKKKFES

Substance “endogenous cardiac troponin T (cTnT) (natural protein)” has a stoichiometry N (cTnT:cTnI:TnC) of 1.
